# Data: paper PMC4500170
# Tested on: Cc1cc(O)cc2c(C(=O)O)c(O)ccc12
# Test: purified protein
# Settings: 2.5 mM SAM, 100 mM phosphate pH 6.5, 25 °C, 10 μM enzyme
substance,measurement,value
NcsB1 (Streptomyces carzinostaticus; R11K),Km,319 ± 40 µM
same,kcat,0.0197 ± 0.000833 s⁻¹
NcsB1 (Streptomyces carzinostaticus; Y293I),Km,649 ± 9 µM
same,kcat,0.0127 ± 0.000667 s⁻¹
NcsB1 (Streptomyces carzinostaticus; R11W),Km,400 ± 68 µM
same,kcat,0.01 ± 0.0005 s⁻¹
NcsB1 (Streptomyces carzinostaticus; R11A),Km,419 ± 61 µM
same,kcat,0.0207 ± 0.001 s⁻¹
